Data set [1] deals with His224 (UniProt position 224, …). Description: potentiometry. The note with it: 298 K; 0.1 M (NaClO4); none (4 mM HClO4, titrated with carbonate-free NaOH); metal-free peptide, 0.5 mM, argon atmosphere.
The target of data set [2] is His239 (UniProt position 239, …). The data set can be described thus: potentiometry. Conditions: 298 K; 0.1 M (NaClO4); none (4 mM HClO4, titrated with carbonate-free NaOH); metal-free peptide, 0.5 mM, argon atmosphere.

In general, pKa refers to the negative logarithm of the acid dissociation constant. A high value points to a group that holds its proton tightly. Regarding GHFTVNPEIQPGAQRLHE, the pKa in data set [1] turned out to be 6.76; in data set [2], 6.16.
